Experimental data: publication doi:10.1101/2024.10.24.620072
Values belong to the substance of their own block, whether it stands above or below them.

What was measured:
[1] = biological target: human (H3-H4)2 tetramer (human) (UniProt P68431); test: MST
[2] = biological target: fluorescently labeled H2a(G129C)-H2b dimer (human) (UniProt P04908); test: MST

Kd [1]: 50 nM
Substance: human α-Synuclein, full-length (from UniProt P37840 1-140) (natural protein)

Kd [1]: 107 nM
Substance: αSyn(1-103) (from UniProt P37840 1-103) (domain or fragment)

Kd [2]: 32400 nM
Substance: αSyn(1-131) (from UniProt P37840 1-131) (domain or fragment)

KD of one of two binding sites [2]: 500 nM
KD of the other of two binding sites [2]: 2600 nM
Substance: αSyn(121-140) peptide (from UniProt P37840 121-140)
